Data on 1 molecule can be found in patent publication US20220072098A1 (priority 2012, published 2022).

This series in a line: Tissue distribution of trypsinogen-AlexaFluor-488 after i.v. injection. Format: in vivo, mice. Particulars: 200 μg i.v., 30 min. Here is the method:
Trypsinogen—AlexaFluor®-488 was injected i.v. in its free form or encapsulated in the bolavesicles. At 30 min after the injection, mice were anesthetized by Xylazine-Ketamine mixture and blood was withdrawn through cardiac puncture, the mouse was perfused with 10 ml PBS and tissues were dissected out. The dissected tissues were attached to labeled paper stripes, frozen in isopentane cooled over liquid nitrogen, and stored at −80° C. The selected tissues were cryosectioned and the fluorescence of the sections was analyzed using confocal fluorescent microscopy. All images were acquired using the same imaging settings and were not corrected or modified. Fluorescence of slices from different organs was quantified by imaging software after subtracting background fluorescence. In effect, for quantifying the fluorescence in the tissue, the average fluorescence obtained from the control mice, which were injected with PBS instead of the fluorescent material was subtracted from the fluorescence values obtained from the same tissue taken from animals that received Trypsinogen-AlexaFluor®-488. At least 4 slices from each organ of each mouse were used for the quantitative analysis and each group contained 4-5 mice.
Prior to delivering GDNF to the brain, pilot experiment, in vivo, studies were carried out with the model protein—trypsinogen, which was labeled for this purpose with AlexaFluor®-488. […]

B1: free labeled protein: free trypsinogen labeled with AlexaFluor-488 (protein, UniProt P00760 18-246, looked up)
pro-form: VDDDDKIVGGYTCGANTVPYQVSLNSGYHFCGGSLINSQWVVSAAHCYKSGIQVRLGEDNINVVEGNEQFISASKSIVHPSYNSNTLNNDIMLIKLKSAASLNSRVASISLPTSCASAGTQCLISGWGNTKSSGTSYPDVLKCLKAPILSDSSCKSAYPGQITSNMFCAGYLEGGKDSCQGDSGGPVVCSGKLQGIVSWGSGCAQKNKPGVYTKVCNYVSWIKQTIASN
modifications: pro-form AlexaFluor-488 label
Turning to B1, the “labeled trypsinogen fluorescence in kidney” value is reported as “high fluorescence”.
